Experimental data taken from paper PMC7275063, “Rab35-regulated lipid turnover by myotubularins represses mTORC1 activity and controls myelin growth” (Nature Communications, 2020).

Molecular target: eGFP-Rab35CA (Q67L), GTP-locked, constitutively active (mouse, UniProt Q6PHN9 1-201, Q67L)
Assay: co-IP; eGFP-Rab35CA or -DN captured on eGFP-Trap_MA beads from lysates of HEK293T cells co-expressing MTMR13 constructs, 24 h after transfection; 90 min at 4 °C; immunoblot
Details: partners not purified

eGFP-Rab35CA (Q67L), GTP-locked, constitutively active, sequence (Q6PHN9 whole entry Q67L): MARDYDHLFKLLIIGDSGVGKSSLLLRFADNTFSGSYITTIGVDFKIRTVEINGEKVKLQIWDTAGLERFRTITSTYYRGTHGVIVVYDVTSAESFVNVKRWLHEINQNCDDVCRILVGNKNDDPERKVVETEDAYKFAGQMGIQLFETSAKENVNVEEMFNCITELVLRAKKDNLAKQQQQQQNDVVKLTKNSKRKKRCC

B1: N-terminally FLAG-tagged MTMR13 (natural protein)
chain: not shown
notes: MTMR13 (SBF2), full length, printed as aa1-1848, 5547 bp; other constructs end at aa1849; Gift plasmid in pcDNA3.1; the printed length of 1849 codons fits the human protein; also called FLAG-MTMR13; source: HEK293T, transfected, in lysate; not shown: FLAG, N-terminal, kept
ratio of FLAG-MTMR13 bound to CA over DN: 11.6
